Data from article PMC12225019.

Biological target: TRIM21 (tripartite motif-containing 21) (UniProt P19474)
Test: co-IP, immunoblot
Conditions: reference: HMGA2 wild type; sites S105

binding against the reference: weaker
Substance: HMGA2 (high mobility group protein A2) (from UniProt P52926) HMGA2 S105A
